The values that follow come from US20090317363A1.

The assay addresses CCR5 (UniProt P51681). In words: cell-based or functional assay.

Substance “NNY-RANTES (n-nonanoyl-RANTES(2-68)) (from UniProt P13501 25-91) (ligand)” came in with a CCR5 sequestration (%) (% of control surface CCR5) of 77; a CCR5 signalling (%) (% of Emax of PSC-RANTES) of 84.5; an anti-HIV potency (IC50, nM) by cell fusion assay of 0.29 nM.

“Met-RANTES (from UniProt P13501 24-91) (ligand)” displayed a CCR5 sequestration (%) (% of control surface CCR5) of 26; a CCR5 signalling (%) (% of Emax of PSC-RANTES) of 15; an anti-HIV potency (IC50, nM) by cell fusion assay of 75.1 nM.

PSC-RANTES (ligand) came in with a CCR5 sequestration (%) (% of control surface CCR5) of 75; a CCR5 signalling (%) (% of Emax of PSC-RANTES) of 100; an anti-HIV potency (IC50, nM) by cell fusion assay of 0.02 nM; an anti-HIV potency (IC50, nM) by viral replication assay of 0.281 nM.

As for “AOP-RANTES, the aminooxypentane oxime of [glyoxylyl]1RANTES(2-68) (from UniProt P13501 25-91) (ligand)”, the CCR5 sequestration (%) (% of control surface CCR5) is 71; the CCR5 signalling (%) (% of Emax of PSC-RANTES) was 80.7; the anti-HIV potency (IC50, nM) by cell fusion assay amounted to 1.12 nM.
